Substrate in the data set: CC(=O)C(=O)O
In words: purified protein. The class given is biochemical, Escherichia coli. The conditions noted are these: 37 °C, pyruvate (1–90 mM) as donor and acceptor, no D-GAP.

B1: DXP synthase (Escherichia coli K-12) (protein)
chain: SFDIAKYPTLALVDSTQELRLLPKESLPKLCDELRRYLLDSVSRSSGHFASGLGTVELTVALHYVYNTPFDQLIWDVGHQAYPHKILTGRRDKIGTIRQKGGLHPFPWRGESEYDVLSVGHSSTSISAGIGIAVAAEKEGKNRRTVCVIGDGAITAGMAFEAMNHAGDIRPDMLVILNDNEMSISENVGALNNHLAQLLSGKLYSSLREGGKKVFSGVPPIKELLKRTEEHIKGMVVPGTLFEELGFNYIGPVDGHDVLGLITTLKNMRDLKGPQFLHIMTKKGRGYEPAEKDPITFHAVPKFDPSSGCLPKSSGGLPSYSKIFGDWLCETAAKDNKLMAITPAMREGSGMVEFSRKFPDRYFDVAIAEQHAVTFAAGLAIGGYKPIVAIYSTFLQRAYDQVLHDVAIQKLPVLFAIDRAGIVGADGQTHQGAFDLSYLRCIPEMVIMTPSDENECRQMLYTGYHYNDGPSAVRYPRGNAVGVELTPLEKLPIGKGIVKRRGEKLAILNFGTLMPEAAKVAESLNATLVDMRFVKPLDEALILEMAASHEALVTVEENAIMGGAGSGVNEVLMAHRKPVPVLNIGLPDFFIPQGTQEEMRAELGLDAAGMEAKIKAWLA
Regarding B1, the K0.5 is 51.0 ± 1.7 mM.

These data come from paper PMC3494461.
